Measurements as given in US10766960 (dated 2020).
Positions count from the first letter of the chain named.

B1: H240-FA020/H240-FB084/L73-k0 (antibody)
chain 1: QDQLVQSGAEVKKPGASVKVSCKASGFNIKDTYIQWVRQAPGQGLEWMGRIDPLRKQTKYREKFEGRVTITADTSTNTAYMELSSLRSEDTAVYYCVRSGREFDYWGQGTLVTVSSASTKGPSVFPLAPSSKSTSGGTAALGCLVKDYFPEPVTVSWNSGALTSGVHTFPAVLQSSGLYSLSSVVTVPSSSLGTKTYTCNVNHKPSNTKVDKKVEPKSCDKTHTCPPCPAPEYYWGPSVFLFPPKPKDTLMISRTPEVTCVVVDVSDEEPEVKFNWYVDGVEVHNAKTKPREEQYNATYRVVSVLTVLHQDWLNGKEYKCKVSNKALPAPIEKTISKAKGQPREPQVYTLPPSRKEKTKNQVSLTCLVKGFYPSDIAVEWESNGQPENNYKTTPPVLDSDGSFFLYSKLTVDKSRWQQGNVFSCSVMHEALHNRYTQKSLSLSP
chain 2: QDQLVQSGAEVKKPGASVKVSCKASGFNIKDTYIQWVRQAPGQGLEWMGRIDPLRKQTKYREKFEGRVTITADTSTNTAYMELSSLRSEDTAVYYCVRSGREFDYWGQGTLVTVSSASTKGPSVFPLAPSSKSTSESTAALGCLVEDYFPEPVTVSWNSGALTSGVHTFPAVLQSSGLYSLSSVVTVPSSNFGTQTYTCNVDHKPSNTKVDKTVEPKSCDKTHTCPPCPAPELLGGPSVFLFPPKPKDTLMISRTPEVTCVVVDVSHEEPEVQFNWYVDGVEVHNAETKPREEQYNSTYRVVSVLTVLHQDWLNGKEYKCKVSNDALPMPIEETISKAKGQPREPQVYTLPPSREEMTKNQVSLTCLVKGFYPSDIAVEWESEGQPENNYKTTPPVLDSDGSFFLYSKLTVDKSRWQQGNVFSCSVMHEALHNHYTQESLSLSP
chain 3: DIQMTQSPSSLSASVGDRVTITCRASQDIHKYIAWYQQKPGQAPRLLIQYTSTLQPGVPSRFSGSGSGTDYTFTISSLQPEDIATYYCLQYEQLRTFGGGTKVEIKRTVAAPSVFIFPPSDEQLKSGTASVVCLLNNFYPREAKVQWKVDNALQSGNSQESVTEQDSKDSTYSLSSTLTLSKADYEKHKVYACEVTHQGLSSPVTKSFNRGEC
B2: H240-FA030/H240-FB064/L73-k0 (antibody)
chain 1: B1 chain 1 with E271K, K357M
chain 2: B1 chain 2 with E146K, E287K, E383N
chain 3: B1 chain 3
B3: H240-FA009/H240-FB015/L73-k0 (antibody)
chain 1: B1 chain 1 with T198I, K357M
chain 2: B1 chain 2 with S137G, E146K, N191S, F192L, T198I, D202N, T213K, E287K, E383N
chain 3: B1 chain 3
B4: H240-FA009/H240-FB020/L73-k0 (antibody)
chain 1: B1 chain 1 with T198I, K357M
chain 2: B1 chain 2 with E136G, S137G, N191S, F192L, T198I, D202N, T213K, E287K, E383N
chain 3: B1 chain 3
B5: H240-FA020/H240-FB059/L73-k0 (antibody)
chain 1: B1 chain 1
chain 2: B1 chain 2 with E136G, S137E, N191S, F192L, T198I, D202N, T213K, E383N
chain 3: B1 chain 3
B6: H240-Kn210/H240-Hl076/L73-k0 (antibody)
chain 1: B1 chain 1 with K195Q, T198I, Y233I, Y234Q, S238M, Y348C, K355D, K357L, T365W, R434H
chain 2: QDQLVQSGAEVKKPGASVKVSCKASGFNIKDTYIQWVRQAPGQGLEWMGRIDPLRKQTKYREKFEGRVTITADTSTNTAYMELSSLRSEDTAVYYCVRSGREFDYWGQGTLVTVSSASTKGPSVFPLAPSSKSTSGGTAALGCLVKDYFPEPVTVSWNSGALTSGVHTFPAVLQSSGLYSLSSVVTVPSSSLGTQTYICNVNHKPSNTKVDKKVEPKSCDKTHTCPPCPAPELLGGPSVFLFPPKPKDTLMISRTPEVTCVVVDVSHEEPEVKFNWYVDGVEVHNAKTKPREEQYNSTYRVVSVLTVLHQDWLNGKEYKCKVSNDALPMPIEETISKAKGQPREPQVYTLPPSRCELTKNQVSLSCAVKGFYPSDIAVEWESNGQPENNYKTTPPVLDSDGSFFLVSKLTVDKSRWQQGNVFSCSVMHEALHNHYTQKSLSLSP
chain 3: B1 chain 3
B7: H240-Kn203/H240-Hl068/L73-k0 (antibody)
chain 1: QDQLVQSGAEVKKPGASVKVSCKASGFNIKDTYIQWVRQAPGQGLEWMGRIDPLRKQTKYREKFEGRVTITADTSTNTAYMELSSLRSEDTAVYYCVRSGREFDYWGQGTLVTVSSASTKGPSVFPLAPSSKSTSGGTAALGCLVKDYFPEPVTVSWNSGALTSGVHTFPAVLQSSGLYSLSSVVTVPSSSLGTQTYICNVNHKPSNTKVDKKVEPKSCDKTHTCPPCPAPEFYWGPMVFLFPPKPKDTLMISRTPEVTCVVVDVSDEDPEVKFNWYVDGVEVHNAKTKPREEQYNATYRVVSVLTVLHQDWLNGKEYKCKVSNKDLPAPIEKTISKAKGQPREPQVCTLPPSRDELTKNQVSLWCLVKGFYPSDIAVEWESNGQPENNYKTTPPVLDSDGSFFLYSKLTVDKSRWQQGNVFSCSVMHEALHNHYTQKSLSLSP
chain 2: B6 chain 2 with M329K
chain 3: B1 chain 3
B8: H240-Kn209/H240-Hl076/L73-k0 (antibody)
chain 1: B7 chain 1 with F233Q, Y234Q, D269E, D326A
chain 2: B6 chain 2
chain 3: B1 chain 3
B9: H240-Kn201/H240-Hl076/L73-k0 (antibody)
chain 1: B7 chain 1 with Y234Q, D269E, D326A
chain 2: B6 chain 2
chain 3: B1 chain 3
B10: H240-Kn223/H240-Hl068/L73-k0 (antibody)
chain 1: B7 chain 1 with F233G
chain 2: B6 chain 2 with M329K
chain 3: B1 chain 3
B11: H240-Kn214/H240-Hl076/L73-k0 (antibody)
chain 1: B7 chain 1 with F233G, Y234Q, D269E, D326A
chain 2: B6 chain 2
chain 3: B1 chain 3
B12: H240-Kn199/H240-Hl068/L73-k0 (antibody)
chain 1: B7 chain 1 with F233L
chain 2: B6 chain 2 with M329K
chain 3: B1 chain 3
B13: H240-Kn184/H240-Hl068/L73-k0 (antibody)
chain 1: B7 chain 1 with F233E
chain 2: B6 chain 2 with M329K
chain 3: B1 chain 3
B14: H240-Kn212/H240-Hl076/L73-k0 (antibody)
chain 1: B7 chain 1 with F233T, Y234Q, D269E, D326A
chain 2: B6 chain 2
chain 3: B1 chain 3
B15: H240-Kn200/H240-Hl076/L73-k0 (antibody)
chain 1: B7 chain 1 with F233S, Y234Q, D269E, D326A
chain 2: B6 chain 2
chain 3: B1 chain 3
B16: H240-Kn202/H240-Hl076/L73-k0 (antibody)
chain 1: B7 chain 1 with F233E, Y234Q, D269E, D326A
chain 2: B6 chain 2
chain 3: B1 chain 3

Biological target: T1, FcgRIIa R (human, UniProt P12318)
T1 chain: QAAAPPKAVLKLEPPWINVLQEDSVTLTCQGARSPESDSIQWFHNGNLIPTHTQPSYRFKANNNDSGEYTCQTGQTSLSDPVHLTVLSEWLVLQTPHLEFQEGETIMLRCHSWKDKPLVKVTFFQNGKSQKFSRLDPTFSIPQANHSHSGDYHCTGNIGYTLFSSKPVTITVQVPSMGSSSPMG
Experiment: SPR

| Binder | Kd [nM] |
| --- | --- |
| B1 | 220 |
| B2 | 290 |
| B3 | 330 |
| B4 | 250 |
| B5 | 250 |

Each binder was assayed against T2, FcgRIIIa V (human, UniProt P08637) (assay: SPR).
T2 sequence (P08637 17-208 F176V): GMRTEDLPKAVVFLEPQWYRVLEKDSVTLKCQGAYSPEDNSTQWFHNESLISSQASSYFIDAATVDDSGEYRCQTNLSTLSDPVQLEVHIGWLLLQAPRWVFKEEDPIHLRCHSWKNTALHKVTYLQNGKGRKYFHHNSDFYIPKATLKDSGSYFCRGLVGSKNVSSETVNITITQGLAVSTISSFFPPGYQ

| Binder | Kd [nM] |
| --- | --- |
| B1 | 1 |
| B2 | 1.5 |
| B3 | 1.3 |
| B4 | 1.1 |
| B5 | 1.3 |

Biological target: T3, FcgRIIb (human, UniProt P31994)
T3 chain: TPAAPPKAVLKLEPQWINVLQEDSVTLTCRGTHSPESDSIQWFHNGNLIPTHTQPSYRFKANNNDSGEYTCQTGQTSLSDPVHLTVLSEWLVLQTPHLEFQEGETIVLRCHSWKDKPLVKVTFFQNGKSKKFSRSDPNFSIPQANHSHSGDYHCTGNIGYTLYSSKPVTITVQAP
Experiment: SPR

| Binder | Kd [nM] |
| --- | --- |
| B6 | 4200 |
| B7 | 270 |
| B8 | 7500 |
| B9 | 5400 |
| B10 | 280 |
| B11 | 7100 |
| B12 | 130 |
| B13 | 150 |
| B14 | 5200 |
| B15 | 6200 |
| B16 | 4100 |

Biological target: T4, FcgRIIa H (human, UniProt P12318)
T4 chain: T1 chain with R134H
Experiment: SPR

| Binder | Kd [nM] |
| --- | --- |
| B6 | 150 |
| B7 | 49 |
| B8 | 250 |
| B9 | 140 |
| B10 | 94 |
| B11 | 330 |
| B12 | 27 |
| B13 | 70 |
| B14 | 230 |
| B15 | 230 |
| B16 | 360 |

Biological target: T4, FcgRIIa H
Experiment: SPR
Remark: another data set of the same source

| Binder | Kd [nM] |
| --- | --- |
| B1 | 57 |
| B2 | 96 |
| B3 | 84 |
| B4 | 64 |
| B5 | 77 |

Biological target: T2, FcgRIIIa V
Experiment: SPR
Remark: another data set of the same source

| Binder | Kd [nM] |
| --- | --- |
| B6 | 0.49 |
| B7 | 0.76 |
| B8 | 0.62 |
| B9 | 0.36 |
| B10 | 0.57 |
| B11 | 0.8 |
| B12 | 0.41 |
| B13 | 0.34 |
| B14 | 0.58 |
| B15 | 0.59 |
| B16 | 0.38 |

Biological target: T3, FcgRIIb
Experiment: SPR
Remark: another data set of the same source

| Binder | Kd [nM] |
| --- | --- |
| B1 | 1400 |
| B2 | 1800 |
| B3 | 1800 |
| B4 | 1400 |
| B5 | 1300 |

Biological target: T5, FcgRIa (human, UniProt P12314)
T5 chain: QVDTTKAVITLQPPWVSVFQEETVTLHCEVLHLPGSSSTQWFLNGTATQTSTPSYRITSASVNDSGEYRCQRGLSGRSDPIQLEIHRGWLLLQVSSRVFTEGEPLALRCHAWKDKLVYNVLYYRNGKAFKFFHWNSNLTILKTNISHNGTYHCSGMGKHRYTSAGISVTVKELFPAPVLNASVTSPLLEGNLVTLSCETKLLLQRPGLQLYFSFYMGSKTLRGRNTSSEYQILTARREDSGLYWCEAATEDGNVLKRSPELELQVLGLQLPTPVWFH
Experiment: SPR

| Binder | Kd [nM] |
| --- | --- |
| B1 | 0.068 |
| B2 | 0.057 |
| B3 | 0.093 |
| B4 | 0.12 |
| B5 | 0.038 |

These binders were tested against T6, FcgRIIIa F (human, UniProt P08637) (assay: SPR).
T6 sequence (P08637 17-208): as the sequence (P08637 17-208 F176V) above, with V160F counted along it

| Binder | Kd [nM] |
| --- | --- |
| B1 | 3.5 |
| B2 | 5.3 |
| B3 | 4.2 |
| B4 | 3.9 |
| B5 | 3.5 |

Biological target: T6, FcgRIIIa F
Experiment: SPR
Remark: another data set of the same source

| Binder | Kd [nM] |
| --- | --- |
| B6 | 1.8 |
| B7 | 3.4 |
| B8 | 2.4 |
| B9 | 1.8 |
| B10 | 4.2 |
| B11 | 3.4 |
| B12 | 2.3 |
| B13 | 2.2 |
| B14 | 2.1 |
| B15 | 2.4 |
| B16 | 1.6 |

Biological target: T5, FcgRIa
Experiment: SPR
Remark: another data set of the same source

| Binder | Kd [nM] |
| --- | --- |
| B6 | 0.079 |
| B7 | 0.43 |
| B8 | 0.083 |
| B9 | 0.058 |
| B10 | 0.13 |
| B11 | 0.061 |
| B12 | 0.31 |
| B13 | 0.16 |
| B14 | 0.094 |
| B15 | 0.088 |
| B16 | 0.071 |

Biological target: T1, FcgRIIa R
Experiment: SPR
Remark: another data set of the same source

| Binder | Kd [nM] |
| --- | --- |
| B6 | 590 |
| B7 | 46 |
| B8 | 1200 |
| B9 | 720 |
| B10 | 62 |
| B11 | 1100 |
| B12 | 20 |
| B13 | 27 |
| B14 | 640 |
| B15 | 790 |
| B16 | 640 |
